Laboratory results as given in the DeepSol protein solubility set.

Assay: soluble on expression in E. coli; label from the status in PepcDB or PDB records

Soluble on expression in E. coli, not soluble:
MGSDKIHHHHHHMKFYEDGNIPEIPNMYFIYGDGGTGKTSLLKQLKGHKFVFSFDMSSNVLIGDKDVDVVIFEHNDAPNIQAMVEECIIRAIQNAKYQVIVLDNVTALQNLVLENIDNAAKDNRQNYQKLQLWFRDLGTILKESGKTIYATAHQLDNGSSGISGEGRFQADMNEKTFNAFTSMFDLVGRIYLAAGERMIDLDPEKGNHAKNRLDDRKLIKANELIQSEKGEK, MGSDKIHHHHHHMKGFMNMFTNDQFKSLLIKTLERKSSSNYYEGGNEIVSKMKISEVTLDETDDFTYYKGYKKGWNTLCTYLKIRVPFDDLDFFESHKDLITQTASSIYDKQGDNVLVDTILVPLPENYEVINFSQLKISDVVSQAIEDAESFMSNGEYQRAFDRVHTAFHGYLIEILKKYEITVPRDENLSKLYSRIQQLIEKEIQPTELADIVKTTIRSSNGMISSLNEARNRHSLAHPNTNIIGKREAKLIIGISSTVTDYISGYLDK, MGSDKIHHHHHHMKGGTEPVETSKMEKAAALLGGMIDLPTIPAVAIQVLSLLDEPEVDVDDVAELVLTDQVMAARVLKMVNSPLYRPATEITSLKGALVYLGLRHIREFILTCSIIQCSEGKDGVLGVKPFWEHSFGVGIVARLIAEKVGYHDTEKAYIGGIIHDIGEVFLSYYMRDEFQKIVDSISDKPHKLVEAEEEFLGTTHCEIGLCIARAWRFPDDYCEVIAHHHAPQEAKNAPRLTAIVNLADLFCNVRQLDYGGKAWVSFSLADEPAWGMLQGPGSRLSELDIERFCYELDDRVEEISELVGNIFKNG, MGSDKIHHHHHHMKGGTSKFKTHTETLYKKKKWSSVSEKRPQKCPSQCLESKQPQVSVLGKRRRASQTPAQETLESEWPQKAKRKKRRREPQTPAQETLESEWPQKAKKKKRRGEPQTPTQESLESEQPPVSLLGKRRRESQTPAQENSESEQPRKAKRRRKKRKGSQQPTSSLLKTPETFLKAKKTTSAHKKKKNSVLEVDMETGIILVDKENMENLLETSRKDVDIVYVDMSKGQRSAKVRETGELPAAKPQEHGCRELLGDVRSRKKQKHLQKVAPWDVVQGSQPESISLPPSEPLSSEDLEGKSTEAAVFCKKKSKKNVFRSQELEPIPDSLDDSETISERLDSTHHGGAVGAGEECESTKESHSIKKKSKKKKHKSVALATSSDSASVTDSKAKNALVDSSEGSGAVREEDVDHRPAEAEAQACSTEKHREAMQRLEPTHEEESNSESASNSAARHISEDRRESDDSDVDLGSAVRQLREFIPDIQERAATTIRRMYRDDLGRFKEFKAQGVAIRFGKFSAKENKQIEKNVQDFLSLTGIESADKLLYTDRYPEEKTLITNLKRKHAFRLHIGKGIARPWKLVYYRAKKIFDVNNYKGRYNEEDTKKLKAYHSLHGNDWKKIGAMVARSSLSVALKFSQIGGTRNQGAWSKAETQRLIKAVEDVILKKMSPQELRELDSKLQEDPEGRLSIVREKLYKGISWVEVEARVETRNWMQCKSKWTEILTKRMTHGGFVYRGVNALQAKITLIERLYELNVNDANEIDWEDLASAIGDVPPPFVQAKFYKLKAACVPFWQKKTFPEIIDYLYKNSLPLLKEKLDKKMKKKDGQIQTPAAPKQDFLFKDIFHCDDDSDEGSPEEPSASDVQ, MGSDKIHHHHHHMKGNAPVLAAVDISKGFRVYRAPHQRMLQAIWGERKKFYSEFWALRNVSFQVFPGEVVGVIGCNGSGKSTLLQILAGTLRPTSGQVVRPERVAALLELGAGFNMEYTGRENIIFNAMLLGLGEQEISERLDEIIQFADIGEFIDRPVRTYSSGMFVRLAFSIAAYVDADVLIVDEALAVGDAAFQFKCLNRLEELLLKGITILLVSHDIQLIKSYCSRAIYLSKGRVIFDGDCETATELYLRDSIETQRAEVRSGSLIASGEHGNSVIAYGNGQGRFLSIRMGVLDEARDYFDSGERVWVEVLVQFDLPVPEHPKITLTIRDQRGYNLYGINNLLLGKALNVEPDGRLRTRISFDCDLQAGEYALTFRLENSLSESVCELMDKKVNAAIFRVFNSPKCFDAVVNLHGAFEPVPFCCETRATQ, MGSDKIHHHHHHMKHIAVIGAGLGGLSAAISLASKGFKVTVIERNEHIGGKMMPITSEGHRFDFGPNTITMPEIFQSVILESGADPDDYFTFEKLTRHTVNHFPDGRSLTFASGREAMRTEVDRFTKGQLAKNDITGYQDEVRELYNIAKQQFFINIDSYFNFSLLRDMTKVHPFKTLHGLHKKYFKDPQLIQALDRYATYIGSSPFQAPATFGLIAHLELNDGVYFTRGGNTAIAEGFARRARELGVTFRLGDEVTQIEVTNQLATEIELNHVDYLSVDFIVLNGDLLTQYPRLISETVRPDFKNPTPAQMEPSISAYVRCIGLGRRIAGLAHHNVFFSSDYEAEFEALFNQHRYAEEPTIYISNSSVTAPEMGEAGDNLFVLVNAPATHKGSAVDFDTYDKIIDQRLQQFGIDITSDVLFEQRITPQDIEQKFSAYHGSLYGLSSNGTRGAFMRPSNRSKNVHNLFFAGGSTHPGGGSPMVTLSGKLASERIVSAVAATL, MGSDKIHHHHHHMKIAFDVDVIKHLPITQMVRQVSEWGYKYIEQSPHPRINPFYKHPKAGRDTMQEYKRALQNYGVEISSFIVVYRWSGPDEERRRAAVTNWKRMIEIAVDMGVQVINTELSGTPDEPEICEEMWYRSMEELLPIVEREGIRIEIQSHPWDFCELNDETVDMVQSLRSDNVTYLYSAPHGFFYDKGQGDVARMLNYAGADLSHVLLADTHNHTLPCRYIMNPPGVNATIHQHIGLGEGEVDFDALFQALREMDFANRTFKVGGEAIITTSLFGYPEKMSVQAVETRERIERELLGR, MGSDKIHHHHHHMKIALIIENSQAAKNAVVHEALTTVAEPLGHKVFNYGMYTAEDKASLTYVMNGLLAGILLNSGAADFVVTGCGTGMGSMLAANAMPGVFCGLVIDPTDAFLFGQINDGNAISMPYSKGFGWAAELNLQDVYRKLFDGERGLGYPRERAEIMRKNRGILRELKDASCRDMLTVLKTVDQDLLRAAIAGEKFAELFYPNCKDDAIANYLRSLDA, MGSDKIHHHHHHMKIAQIAPLAERVPPKLYGGTERIVHCLTEELVRLGHDVTLFASGDSLTSAELVPCCDVALRLNPRVQDFLPHHIAMLEEVRRRAPQFDVLHFHIEFLHFPLIRDFADRTVTTLHTRLDLPDLQPFYLAFPDIPLVSISQHQRVPMPPVNWRGTVLHGLDPTVLPLREGRSDEYLAFLGRIAPEKGPDRAIEIAARSGMPLKIAAKIDAQDRAYWEAVVEPLIASHSNVEYIGEIDEGQKADFLGNAAALLFPINWPEPFGLVMIEAMACGTPVLAFRYGSAPEVIDDGVSGILVDTVEQAVESLGRVLELDRRKVRESFETRFTTERMTRDYLDIYQNLPGVLRQTASTPQGEAKKVGLEAA, MGSDKIHHHHHHMKIDEFNKALDRGEISPLYYFHGDEPHLMERAVKRLMDSAVPPDFRDFNLDVFYGNECKGDEVASVAQTLPMFADRRMVLVKRAGDLSAAALEILASCVADPPPTTCLVFMGEKVDQRKKFFQEMKKKGELVECKRPYENQLGAFIREEAKGLGKRVEPAAAEMLVYLVGNNLGELSTQLEKVALYVGQRETISVEDVRGIVSDTKVESVFDLTNALGERNVVKALRSLATILRDGEAPLMLLAMIARHFRQLWRVRDLMAQKVPQQDISRLAGINPYFIKGVMAQARNFSASELKKVFEGLYATDLALKGGGAKRPTLTLEKLVMDVCGMGSR, MGSDKIHHHHHHMKIDLNADLGEGCASDAELLTLVSSANIACGFHAGDAQIMQACVREAIKNGVAIGAHPSFPDRENFGRSAMQLPPETVYAQTLYQIGALATIARAQGGVMRHVKPHGMLYNQAAKEAQLADAIARAVYACDPALILVGLAGSELIRAGKQYGLTTREEVFADRGYQADGSLVPRSQSGALIENEEQALAQTLEMVQHGRVKSITGEWATVAAQTVCLHGDGEHALAFARRLRSAFAEKGIVVAA, MGSDKIHHHHHHMKIELENCQKSLTLKDFEEIESKLGYALPERLKEFYLQYNGGSTKQTASINKYQEVEIEDFFPFKYNKDFKNDPRYTAEGETLELRKAGAISDSILIFAMESTDEGRITIDLVNGKIYLYPIVGMQDVIFNFEEPRLVANSIDDFFDNLVVLDGHKAIPAIEEIEEGQTETAGVMPELSDCSASLTKEDIKNFEVELNVKIPAGMKNFYLKFNGGMPSPYCYQPQDEDLDRVEINAFFPIKERTNAFETIEVIAKGIWSRNLMPCNLLPFAMDSGGNYYALNLKNKKIYYYLTDEWDENASREYNFETNTRYIAQSFNYFINHFIEEEE, MGSDKIHHHHHHMKIERLDKYIWKIPKEGDMKVDAIIFTDAESVNDPQFREAMKQLMNVATLPGIVKYALAMPDIHWGYGFPIGGVAAFDVKEGIISPGGVGFDINCGVRLMKTDLTYEDVKDRMRSLVEAIYEFVPAGVGSTGDIVLGKKGLRKVLVEGAEWAVKSGYGLEEDLERIEDGGKIHPADPSYVSEEAFERGSDELGTLGAGNHFVEVQMVQEIYDEELAEFFGLEIGTITVMIHSGSRGFGHQVATDYIRLMRDNLKEHNKNLPDKQLINAPFEHPLGQAYYSAMNCAANYAFANREILGHLVRKAFWKVFGRDTRVDLIYDVAHNIAKVEEYEVDGKRRKLVVHRKGATRSLGPGSEKVPSIYREVGQPVIIPGDMGTASYLLVGTKKAEEKTFGSTAHGAGRVLGRSAALKKLDYREVLDELAEKNIVVMSKSKKTLVEEAPEVYKDVDRVVQIVHEIGISRKVARMIPLGVVKG, MGSDKIHHHHHHMKIGIDGRAAKWYRGTGIGTYTYQLISHINKLDEANDYTIFLPDSSNLNFKLKNNFSLKSINCTAKNNFWDQVNIPNIIKKDDTELYHVPQNGIGLPYNKNCRFTITLHDIIPYKMPETVGKKYLKIFEEEIPKIIPLCDGIITVSDFSKKDISEFFNYPESKIYVTYLSAEDIYRPIEKCISKDIIKNLYGIDKNYILYVGGFSPRKNISGIIHAFSKLKKTTKTNLKLIIAGKKGLSYPNYVDIAKKLNVSSDVIFPGFIPLEYMPFLYNAAEFLIYPSFYEGFGLPPLEAMACKVPVITSNITSLYEIFNGCALIVNPYDVEKIKDAMEIMYFDSSVRKIYSEKGFEFSKKLTWNSTAISTIKAYEKISKN, MGSDKIHHHHHHMKIGIVTFHRALNYGAVLQACAMRRIFSDHGEVEMVDYWPDYHSSHYSLLDTRFLNKNQSLSSRVRLLKSAIKRIILLPVRLKRNKKFLSFIDSNIVKVSNAPIKLANKIPDYFDVVVYGSDQIWRVYDFDNYPRPDMVYMGAGVLDGTRKIAFAASMGDVNVDTLCDDSVIKALKNFEHINVREQALSESLLKHSGLSSCVVLDPTFLVSSDVWKRMAETIPRNRKDNKYALFYSLIPSEESIRIAKNIAEEKGVELVEINGFETIGGLFNKSVAQSAGPLDFLELIMNAEFIVSTSFHGVVFSIIFEKQFCACGMKGHSERVRSLLSKLSIEDRLIDTVEQLESLGEIDYKEVTKLLAREIEHSKELLEYSLFE, MGSDKIHHHHHHMKILIKQDFDTMSEWAKMLLLSTMSQDKRVNLSITAGKTPALVYQKLASIVKNSSDFDNVHYYNFDEIPVPHQKEGITLTDLRTLYLTPAEISEQNIHPLTVENFQQQEQRIADAGGLDLMLIGLGADGHFCGNMPTTTHFKNETYQVTVTGSEPWFVPEMMQPGMTFVTMGPASIMKVKHLVLIVNGEQKAQMVKQVLQGPVTETYPASILQLHPNLTVLLDEAAASQLEK
